Data as given in patent US20200199204A1 (UNITED STATES OF AMERICA AS REPRESENTED BY THE SECRETARY …, published 2020).

What was measured:
Experiment in all cases: cell-based or functional assay
[1] = target: HIV-1 Env of strain TH976.17 (clade AE), on Env-pseudovirus (HIV-1 strain TH976.17)
[2] = target: HIV-1 Env of strain CNE3 (clade AE), on Env-pseudovirus (HIV-1 strain CNE3)
[3] = target: SIV Env of SIVmac251.30 (nonHIV control), on Env-pseudovirus (SIVmac251.30)

| Binder | IC50, neutralization of Env-pseudovirus (TZM-bl assay) [1] | IC50, neutralization of Env-pseudovirus (TZM-bl assay) [2] | IC50, neutralization of Env-pseudovirus (TZM-bl assay) [3] |
| --- | --- | --- | --- |
| CAP256-VRC26.11 (antibody, V domains shown) VH: EVQLVESGGGVVPPGKSLTLSCVASRFTFSAFGMHWVRQAPGKGLEWVASISFAGIKKYYADSVKGRFSISRDNSNTLFLQMNGLRGEDTGLYHCVKDMRELECEEWASDYYDFGKPQPCLDRRGVSGISAWWGPGTMVTVSS VL: QSVLTQPPSVSAAPGQNVTISCSGPPSHIEKNDVSWYQRLPGMAPKMVIYESKRRPLGIPVRFSASRSGSSATLVITGLQTADEADYYCGTWDGRMNFGTGTTVSVLG | > 50 µg/mL | > 50 µg/mL | – |
| CAP256-VRC26.08 (antibody, V domains shown) VH: EVQLVESGGGVVQPGRSLTLSCAASQFTFSNYGMHWVRQAPGKGLEWVASVSNDGTKKYHGDSVWGRFTISRDNSKNTLFLQMSSLRAEDTAVYFCVRDQREDECEEWWSDYYDFGRELPCRKFRGLGLAGIFDIWGHGTMVTVSS VL: QSALTQPPSVSAAPGQKVTISCSGNSSNIGNNFVSWYQQVPGTAPKLLLYETYRRPSGIPDRFSGSKSGTSATLAITGLQTGDEADYYCTVWGVRKGVGAVFGTGTKVTVLG | > 50 µg/mL | > 50 µg/mL | > 50 µg/mL |
| CAP256-VRC26.09 (antibody, V domains shown) VH: EVQLVESGGGVVQPGRSLTLSCAASQFNFANYGMHWVRQAPGKGLEWVASISNDGTKKYHEESVWGRFTISKDNSKSTLFLQMNSLRIEDTALYFCVKDQREDECEEWWSDYYDFGRELPCRKSRGLGLAGIFDMWGHGTMVTVSS VL: QSALTQPPSVSAAPGQKVTISCSGNSSNIGNNFVSWYQQLPGTAPKLLIYENNRRPSGIPDRFSGSKSGTSATLAISGLQTGDEADYWCAVWGVRRGAGAVFGAGTKVTVLG | > 50 µg/mL | > 50 µg/mL | > 50 µg/mL |
| CAP256-VRC26.12 (antibody, V domains shown) VH: EVQLVQSGGGVVQPGRSLRLSCAAPYFEFGRYGFHWVRQAPGKGLEWVASISFAGRDYYHSPSVWGRFTISRDNSKNTLYLQMNSLRIEDTALYFCARDLRESECEEWESDYYDFGKKGPCVKPRGVAGGLDLWGQGTMVIVSS VL: QSVLTQPPSVSTAPGQTVTVSCSGGTSNTGNNFVSWYQHLPGTAPKLLIYENNKRPLGVPDRFSGAKSGTSATLAITGLQTGDEGDYYCATWSGSLNIGTGTKVSVLG | > 50 µg/mL | > 50 µg/mL | – |
| CAP256-VRC26.10 (antibody, V domains shown) VH: QAILVESGGGVVQPGRSLRLSCAASQFTFSGHGLHWVRQAPGKGLEWVASISFAGTKMDYADSVKGRFAISRDNSKNTLYLQMNSLRVEDTALYYCAKDMREYECEYWTSDYYDFGRPQPCIDRRGVVGIFDMWGQGTMVTVST VL: QSVLTQPPSVSAAPGQKVTISCSGSSSNIGDNYVSWYQHLPGTAPKLLIYENTRRPSGIPDRFSGSKSGTSATLAITGLQTGDEADYYCGTWDVRPNRGAVFGTGTKVTVLG | > 50 µg/mL | > 50 µg/mL | > 50 µg/mL |
